Laboratory results published in the supplement of paper PMC12458215.
± gives the uncertainty stated by the source.

System: HEK293T
Assay: plasma membrane surface immunostaining intensity (anti-HA, deep receptor scanning) (arbitrary fluorescence units); higher = higher plasma membrane expression

| Sequence | plasma membrane surface immunostaining intensity (GPCR class: A) | plasma membrane surface immunostaining intensity (GPCR class: A (Olfactory)) |
| --- | --- | --- |
| MPSKSLSNLSVTTGANESGSVPEGWERDFLPASDGTTTELVIRCVIPSLYLLIITVGLLGNIMLVKIFITNSAMRSVPNIFISNLAAGDLLLLLTCVPVDASRYFFDEWMFGKVGCKLIPVIQLTSVGVSVFTLTALSADRYRAIVNPMDMQTSGALLRTCVKAMGIWVVSVLLAVPEAVFSEVARISSLDNSSFTACIPYPQTDELHPKIHSVLIFLVYFLIPLAIISIYYYHIAKTLIKSAHNLPGEYNEHTKKQMETRKRLAKIVLVFVGCFIFCWFPNHILYMYRSFNYNEIDPSLGHMIVTLVARVLSFGNSCVNPFALYLLSESFRRHFNSQLCCGRKSYQERGTSYLLSSSAVRMTSLKSNAKNMVTNSVLLNGHSMKQEMAL [NMBR] | 2430 ± 1200 |  |
| MATLPAAETWIDGGGGVGADAVNLTASLAAGAATGAVETGWLQLLDQAGNLSSSPSALGLPVASPAPSQPWANLTNQFVQPSWRIALWSLAYGVVVAVAVLGNLIVIWIILAHKRMRTVTNYFLVNLAFSDASMAAFNTLVNFIYALHSEWYFGANYCRFQNFFPITAVFASIYSMTAIAVDRYMAIIDPLKPRLSATATKIVIGSIWILAFLLAFPQCLYSKTKVMPGRTLCFVQWPEGPKQHFTYHIIVIILVYCFPLLIMGITYTIVGITLWGGEIPGDTCDKYHEQLKAKRKVVKMMIIVVMTFAICWLPYHIYFILTAIYQQLNRWKYIQQVYLASFWLAMSSTMYNPIIYCCLNKRFRAGFKRAFRWCPFIKVSSYDELELKTTRFHPNRQSSMYTVTRMESMTVVFDPNDADTTRSSRKKRATPRDPSFNGCSRRNSKSASATSSFISSPYTSVDEYS [TACR3] | 4780 ± 620 |  |
| MDKINQTFVREFILLGLSGYPKLEIIFFALILVMYVVILIGNGVLIIASILDSRLHMPMYFFLGNLSFLDICYTTSSIPSTLVSLISKKRNISFSGCAVQMFFGFAMGSTECFLLGMMAFDRYVAICNPLRYPIIMNKVVYVLLTSVSWLSGGINSTVQTSLAMRWPFCGNNIINHFLCEILAVLKLACSDISVNIVTLAVSNIAFLVLPLLVIFFSYMFILYTILRTNSATGRHKAFSTCSAHLTVVIIFYGTIFFMYAKPKSQDLLGKDNLQATEGLVSMFYGVVTPMLNPIIYSLRNKDVKAAIKYLLSRKAINQ [OR13C4] |  | 311 ± 110 |
| MEGISIYTSDNYTEEMGSGDYDSMKEPCFREENANFNKIFLPTIYSIIFLTGIVGNGLVILVMGYQKKLRSMTDKYRLHLSVADLLFVITLPFWAVDAVANWYFGNFLCKAVHVIYTVNLYSSVLILAFISLDRYLAIVHATNSQRPRKLLAEKVVYVGVWIPALLLTIPDFIFANVSEADDRYICDRFYPNDLWVVVFQFQHIMVGLILPGIVILSCYCIIISKLSHSKGHQKRKALKTTVILILAFFACWLPYYIGISIDSFILLEIIKQGCEFENTVHKWISITEALAFFHCCLNPILYAFLGAKFKTSAQHALTSVSRGSSLKILSKGKRGGHSSVSTESESSSFHSS [CXCR4] | 814 ± 140 |  |
| MPSPPGLRALWLCAALCASRRAGGAPQPGPGPTACPAPCHCQEDGIMLSADCSELGLSAVPGDLDPLTAYLDLSMNNLTELQPGLFHHLRFLEELRLSGNHLSHIPGQAFSGLYSLKILMLQNNQLGGIPAEALWELPSLQSLRLDANLISLVPERSFEGLSSLRHLWLDDNALTEIPVRALNNLPALQAMTLALNRISHIPDYAFQNLTSLVVLHLHNNRIQHLGTHSFEGLHNLETLDLNYNKLQEFPVAIRTLGRLQELGFHNNNIKAIPEKAFMGNPLLQTIHFYDNPIQFVGRSAFQYLPKLHTLSLNGAMDIQEFPDLKGTTSLEILTLTRAGIRLLPSGMCQQLPRLRVLELSHNQIEELPSLHRCQKLEEIGLQHNRIWEIGADTFSQLSSLQALDLSWNAIRSIHPEAFSTLHSLVKLDLTDNQLTTLPLAGLGGLMHLKLKGNLALSQAFSKDSFPKLRILEVPYAYQCCPYGMCASFFKASGQWEAEDLHLDDEESSKRPLGLLARQAENHYDQDLDELQLEMEDSKPHPSVQCSPTPGPFKPCEYLFESWGIRLAVWAIVLLSVLCNGLVLLTVFAGGPVPLPPVKFVVGAIAGANTLTGISCGLLASVDALTFGQFSEYGARWETGLGCRATGFLAVLGSEASVLLLTLAAVQCSVSVSCVRAYGKSPSLGSVRAGVLGCLALAGLAAALPLASVGEYGASPLCLPYAPPEGQPAALGFTVALVMMNSFCFLVVAGAYIKLYCDLPRGDFEAVWDCAMVRHVAWLIFADGLLYCPVAFLSFASMLGLFPVTPEAVKSVLLVVLPLPACLNPLLYLLFNPHFRDDLRRLRPRAGDSGPLAYAAAGELEKSSCDSTQALVAFSDVDLILEASEAGRPPGLETYGFPSVTLISCQQPGAPRLEGSHCVEPEGNHFGNPQPSMDGELLLRAEGSTPAGGGLSGGGGFQPSGLAFASHV [LGR6] | 479 ± 50 |  |
